This experiment concerns the target T1, Rrp44 D171N/D551N (S. cerevisiae, UniProt Q08162 1-1001, D171N | D551N).
T1 sequence: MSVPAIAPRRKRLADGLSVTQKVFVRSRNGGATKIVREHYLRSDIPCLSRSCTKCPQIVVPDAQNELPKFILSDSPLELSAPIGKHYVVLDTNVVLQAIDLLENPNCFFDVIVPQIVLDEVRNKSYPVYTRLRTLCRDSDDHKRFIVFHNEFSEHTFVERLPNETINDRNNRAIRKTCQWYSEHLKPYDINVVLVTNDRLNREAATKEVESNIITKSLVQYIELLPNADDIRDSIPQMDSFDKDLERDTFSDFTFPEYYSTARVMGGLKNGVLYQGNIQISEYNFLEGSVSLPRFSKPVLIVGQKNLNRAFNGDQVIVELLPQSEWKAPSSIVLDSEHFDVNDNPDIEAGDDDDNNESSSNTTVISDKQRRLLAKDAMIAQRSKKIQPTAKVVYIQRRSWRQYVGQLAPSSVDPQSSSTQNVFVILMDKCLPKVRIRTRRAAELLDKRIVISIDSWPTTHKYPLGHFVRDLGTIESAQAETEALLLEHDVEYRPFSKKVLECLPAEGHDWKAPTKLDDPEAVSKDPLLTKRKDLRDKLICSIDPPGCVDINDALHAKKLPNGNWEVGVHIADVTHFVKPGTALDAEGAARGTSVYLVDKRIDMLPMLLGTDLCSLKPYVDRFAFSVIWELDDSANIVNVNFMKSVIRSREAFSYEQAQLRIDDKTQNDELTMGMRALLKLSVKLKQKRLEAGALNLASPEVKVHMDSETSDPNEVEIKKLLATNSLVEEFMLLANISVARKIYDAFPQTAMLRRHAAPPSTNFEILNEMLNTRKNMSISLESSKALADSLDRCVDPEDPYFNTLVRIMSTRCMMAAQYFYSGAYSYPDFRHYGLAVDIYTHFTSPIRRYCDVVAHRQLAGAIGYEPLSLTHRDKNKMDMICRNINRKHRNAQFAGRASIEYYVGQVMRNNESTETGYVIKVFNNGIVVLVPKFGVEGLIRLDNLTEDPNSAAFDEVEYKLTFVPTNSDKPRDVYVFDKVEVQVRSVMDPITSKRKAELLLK
The experiment is described as follows: crystal structure.

B1: Rrp43 (natural protein, S. cerevisiae)
chain: MAESTTLETIEIHPITFPPEVLARISPELSLQRHLSLGIRPCLRKYEEFRDVAIENNTLSRYADAGNIDTKNNILGSNVLKSGKTIVITSITGGIIEETSAAIKDLDDFGEEELFEVTKEEDIIANYASVYPVVEVERGRVGACTDEEMTISQKLHDSILHSRILPKKALKVKAGVRSANEDGTFSVLYPDELEDDTLNETNLKMKRKWSYVLYAKIVVLSRTGPVFDLCWNSLMYALQSVKLPRAFIDERASDLRMTIRTRGRSATIRETYEIICDQTKSVPLMINAKNIAFASNYGIVELDPECQLQNSDNSEEEEVDIDMDKLNTVLIADLDTEAEETSIHSTISILAAPSGNYKQLTLVGGGAKITPEMIKRSLLLSRVRADDLSTRFNI
As for B1, the binding result was “binds”.
